Three molecules from US20190016816A1 (APTEVO RESEARCH AND DEVELOPMENT, published 2019) can be followed below.

For one assay, the target named is T1, FcγRIIIb (CD16b) (UniProt O75015 17-200, limits assumed).
T1 construct: whole, on cells
The assay is described as follows: flow cytometry, CHO cells stably expressing CD16b, fluorescent anti-human IgG secondary, MFI (mean). The text has this: ALG.APV-210 contains mutations introduced to prevent interaction with Fcγ receptors (FcγR) that could lead to FcγR-mediated T-cell activation or ADCC, ADCP, CDC etc. Binding of ALG.APV-210 was therefore tested on CHO cell transfectants stably expressing the following FcγR: FcγRI (CD64), FcγRIIa (CD32a His131), FcγRIIb (CD32b), FcγRIIIa (CD16a Val158 and CD16a Phe158), and FcγRIIIb (CD16b). Untransfected CHO cells were used as negative control. A control human IgG1 molecule was used as a positive control. Different concentrations of ALG.APV-210 or control IgG1 were incubated with the FcγR-expressing cell lines, washed, and labeled with a secondary anti-human IgG reagent. Binding of ALG.APV-210 and the control IgG1 was detected by flow cytometry.
In general terms: Flow cytometry measures light scatter and fluorescence of single cells or particles in a stream.

In another assay the target is T2, cynomolgus 5T4 on cells (cynomolgus macaque, UniProt Q4R8Y9 35-420).
T2 construct: whole, on cells; also called CHO-K1/cynomolgus 5T4 transfectants
T2 sequence (looked up): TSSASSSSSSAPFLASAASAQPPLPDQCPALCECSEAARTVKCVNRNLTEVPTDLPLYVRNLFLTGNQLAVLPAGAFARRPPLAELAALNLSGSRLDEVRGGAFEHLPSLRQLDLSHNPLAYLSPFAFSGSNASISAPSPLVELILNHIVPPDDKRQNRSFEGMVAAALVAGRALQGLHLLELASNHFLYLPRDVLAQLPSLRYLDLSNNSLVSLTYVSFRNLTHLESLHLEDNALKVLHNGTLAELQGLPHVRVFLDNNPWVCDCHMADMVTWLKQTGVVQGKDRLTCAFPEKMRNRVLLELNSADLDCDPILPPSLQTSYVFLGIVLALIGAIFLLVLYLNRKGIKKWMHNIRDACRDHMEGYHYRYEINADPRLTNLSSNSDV
The assay is described as follows: flow cytometry, CHO-K1/cynomolgus 5T4 transfectants, labelled anti-human IgG secondary, MFI (mean). The protocol: Binding studies were performed by standard flow cytometry-based staining procedures two cell lines expressing 5T4:CHO-K1 cells (obtained from Alligator) transduced with human or cynomolgus macaque 5T4 and SKOV-3 human ovarian adenocarcinoma cells which express (human) 5T4. All labeling and washes were performed in U-bottom 96-well plates in saline buffer with 0.1% BSA and 2 mM EDTA. Cell were plated at approximately 100,000 cells per well and incubated with a range of 100 nM to 0.05 nM concentrations of test molecules in […], for 30 minutes on ice. Cells were washed three times then incubated for another 30 min on ice with fluorescently-labeled secondary polyclonal antibody, F(ab′)² goat anti-human IgG (Jackson ImmunoResearch Laboratories). The cells were then washed twice and the samples acquired in a BD LSRII or a Symphony A3 flow cytometer. The sample files were analyzed using FlowJo software; the mean fluorescence intensity (MFI-mean) or median fluorescence intensity (MFI-median) of the live population of cells in each well was calculated after gating on live cells (forward vs side scatter). Nonlinear regression analysis to determine EC₅₀ values was performed in GraphPad Prism 6® graphing and statistics software.

The target of assay [1] is T3, human 5T4 on cells (human, UniProt Q13641 32-420).
T3 construct: also called TPBG; hu5T4
T3 sequence: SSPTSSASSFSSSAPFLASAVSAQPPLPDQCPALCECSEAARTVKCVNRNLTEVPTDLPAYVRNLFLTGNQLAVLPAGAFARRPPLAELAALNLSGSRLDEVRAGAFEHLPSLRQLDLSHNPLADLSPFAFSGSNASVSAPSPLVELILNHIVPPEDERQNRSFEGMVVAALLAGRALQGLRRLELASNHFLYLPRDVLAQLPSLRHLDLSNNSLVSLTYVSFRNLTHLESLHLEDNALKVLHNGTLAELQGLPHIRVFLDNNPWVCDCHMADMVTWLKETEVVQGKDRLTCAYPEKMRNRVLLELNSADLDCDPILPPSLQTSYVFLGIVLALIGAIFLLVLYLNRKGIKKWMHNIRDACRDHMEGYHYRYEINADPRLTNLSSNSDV
The assay is described as follows: flow cytometry, HCT-116 cells, streptavidin-PE, normalized MFI of 2 pooled experiments; HCT-116 cells. How it is done:
(§1) Prior to the FACS staining, all cell lines were characterized for their 5T4 expression levels using a receptor density kit (Quantum Simply Cellular, anti-human IgG, Bangs Laboratories, Inc). Adherent cell lines were cultured according to their supplier's instructions and were harvested from their cell culture flasks using Trypsin/EDTA, counted in R10 medium in a Burker chamber, and diluted in FACS buffer (PBS+0.5% BSA, 0.05% NaN₃) to a concentration of 4×10⁶ cells/mL. 50 μL (0.20×10⁶) of cell solution was added to a 96-well FACS staining plate (Falcon #351190). Cells were incubated for 20 min in 4° C. with 50 μL of the biotinylated ALG.APV-210 (2× final concentration). The antibodies were added in a serial dilution starting at 20 μg/mL titrating down in a 12 step ½ dilution down to 0.010 μg/mL. Following 2× washing with FACS buffer, cells were incubated for 30 min in 4° C. with 100 μL of a secondary antibody (streptavidin-PE, BD #554061, diluted 1/500). […] Cells were analysed for ALG.APV-210 binding using flow cytometry (FACSVerse) by gating on single cells. MFI values (secondary antibody only subtracted) from 1 out of 2 independent experiments, as well as normalized data and EC₅₀-values of pooled data from 2 experiments were determined and plotted using GraphPad Prism 7, non-linear regression log (agonist) vs. normalized response—variable slope.

Assay [2] deals with T3, human 5T4 on cells. As to the kind of experiment: flow cytometry, JAR cells, streptavidin-PE, normalized MFI of 2 pooled experiments. The protocol:
as §1

Assay [3] has as its target T3, human 5T4 on cells. As to the kind of experiment: flow cytometry, CT26-hu5T4^high cells, streptavidin-PE, normalized MFI of 2 pooled experiments. The protocol: as §1

T1 sequence (O75015 17-200 limits assumed): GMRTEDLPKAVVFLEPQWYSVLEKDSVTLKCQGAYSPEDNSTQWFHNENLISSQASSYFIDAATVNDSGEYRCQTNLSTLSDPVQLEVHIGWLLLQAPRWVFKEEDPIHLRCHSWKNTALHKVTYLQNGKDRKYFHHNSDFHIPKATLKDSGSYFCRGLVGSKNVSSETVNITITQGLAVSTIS

B1: ALG.APV-210 (bispecific antibody)
chain: EVQLLESGGGLVQPGGSLRLSCAASGFTFSHGSMYWVRQAPGKGLEWVSSISSGSGSTYYADSVKGRFTISHDNSKNTLYLQMNSLRAEDTAVYYCARSSYYGSYYSIDYWGQGTLVTVSSGGGGSGGGGSGGGGSGGGGSDIQMTQSPSSLSASVGDRVTITCRASQSISSYLNWYQQKPGKAPKLLIYAASSLQSGVPSRFSGSGSGTDFTLTISSLQPEDFATYYCQQYYDNLPTFGQGTKLEIKEPKSSDKTHTCPPCPAPEAAGAPSVFLFPPKPKDTLMISRTPEVTCVVVDVSHEDPEVKFNWYVDGVEVHNAKTKPREEQYNSTYRVVSVLTVLHQDWLNGKEYKCAVSNKALPAPIEKTISKAKGQPREPQVYTLPPSRDELTKNQVSLTCLVKGFYPSDIAVEWESNGQPENNYKTTPPVLDSDGSFFLYSKLTVDKSRWQQGNVFSCSVMHEALHNHYTQKSLSLSPGSGGGGSGGGGSGGGGSPSEVQLLESGGGLVQPGGSLRLSCAASGFTFSSYAMSWVRQAPGKCLEWVSAISGSGGSTYYADSVKGRFTISRDNSKNTLYLQMNSLRAEDTAVYYCARYYGGYYSAWMDYWGQGTLVTVSSGGGGSGGGGSGGGGSGGGGSDIQMTQSPSSLSASVGDRVTITCRASQSISSFLNWYQQKPGKAPKLLIYAASSLQSGVPSRFSGSGSGTDFTLTISSLQPEDSATYYCQQTYGYLHTFGCGTKLEIKR
notes: Optimized ADAPTIR scFv-Fc-scFv homodimer with stabilizing disulfide in the 1210 scFv; also called 5T4-CD137 bispecific antibody
Consider B1, for which the binding result in the assay with FcγRIIIb (CD16b) is “no binding (tested: 1000 nM)”. Further, in the assay with cynomolgus 5T4 on cells, the EC50 came to 7.2 nM and the “Maximum MFI” value came out at 23800.

B2: biotinylated ALG.APV-210 (bispecific antibody)
chain: B1 chain
notes: also called ALG.APV-210 (biotinylated for FACS detection)
In the case of B2, the EC50 amounted to 16 nM in the assay with human 5T4 on cells [1], 9 nM with human 5T4 on cells [2] and 20 nM in the assay with human 5T4 on cells [3].

B3: ALG.APV-187 (bispecific antibody)
chain: EVQLLESGGGLVQPGGSLRLSCAASGFTFSHGSMYWVRQAPGKGLEWVSSISSGSGSTYYADSVKGRFTISHDNSKNTLYLQMNSLRAEDTAVYYCARSSYYGSYYSIDYWGQGTLVTVSSGGGGSGGGGSGGGGSGGGGSDIQMTQSPSSLSASVGDRVTITCRASQSISSYLNWYQQKPGKAPKLLIYAASSLQSGVPSRFSGSGSGTDFTLTISSLQPEDFATYYCQQYYDNLPTFGQGTKLEIKSSEPKSSDKTHTCPPCPAPEAAGAPSVFLFPPKPKDTLMISRTPEVTCVVVDVSHEDPEVKFNWYVDGVEVHNAKTKPREEQYNSTYRVVSVLTVLHQDWLNGKEYKCAVSNKALPAPIEKTISKAKGQPREPQVYTLPPSRDELTKNQVSLTCLVKGFYPSDIAVEWESNGQPENNYKTTPPVLDSDGSFFLYSKLTVDKSRWQQGNVFSCSVMHEALHNHYTQKSLSLSPGSGGGGSGGGGSGGGGSPSEVQLLESGGGLVQPGGSLRLSCAASGFTFSSYAMSWVRQAPGKCLEWVSAISGSGGSTYYADSVKGRFTISRDNSKNTLYLQMNSLRAEDTAVYYCARYYGGYYSAWMDYWGQGTLVTVSSGGGGSGGGGSGGGGSGGGGSDIQMTQSPSSLSASVGDRVTITCRASQSISSFLNWYQQKPGKAPKLLIYAASSLQSGVPSRFSGSGSGTDFTLTISSLQPEDSATYYCQQTYGYLHTFGCGTKLEIKR
notes: Optimized ADAPTIR scFv-Fc-scFv homodimer with stabilizing disulfide in the 1210 scFv
Turning to B3, in the assay with cynomolgus 5T4 on cells, it took 8.5 nM to reach a half-maximal effect (EC50) and the “Maximum MFI” value was 26000.

What is called EC50 is the concentration at which the effect is half-maximal. The low end stands for an effect from little substance, the high end for a need for much substance.
